According to the DeepSol protein solubility set:

assay: soluble on expression in E. coli; label from the status in PepcDB or PDB records

Row | Sequence | soluble on expression in E. coli
1 | MTWETVIGLEIHVQLNTKSKIFSGASTAFGAEPNAHASVVECALPGVLPVMNREVVEKAIKLGLALDAKINQKNVFDRKNYFYPDLPKGYQISQLDLPIVEHGKLEIVVGDDVKTINVTRAHMEEDAGKSVHEGLNGATGIDLNRAGTPLLEVVSEPEMRSAAEAVAYAKALHSLVTWLDICDGNMAEGSFRVDANVSVRPKGQEEFGTRREIKNLNSFRFLEQAINYEAEAQIEILEDGGKVQQATMLFDPEKGETRVMRLKEDAHDYRYFPDPDLLPVIISDAQMQKAKAEMPELPKEMAARFVADYGVSEYDARLLTASRAQAAYFEEAAKESGQGKLTANWMNGELAAALNKEGMELADSPITAPRLAALVGKIADGTLSSKLAKKAFEAMWAEPEATIAEIIEKHGLQQMTDTGEIEAMVDEVLANNAKAVEQFKSGNEKALNAIVGQVMKASKGKANPAQVQELIKAKLA | not soluble
2 | MTWKNFGFEIFGEKYGQEELEKRIKDEHTPPPDSPVFGGLKLKLKKEKFKTLFTLGTTLKGFRRATHTVGTGGIGEITIVNDPKFPEHEFFTAGRTFPARLRHANLKYPDDAGADARSFSIKFADSDSDGPLDIVMNTGEANIFWNSPSLEDFVPVEEGDAAEEYVYKNPYYYYNLVEALRRAPDTFAHLYYYSQVTMPFKAKDGKVRYCRYRALPGDVDIKEEDESGRLTEEEQRKIWIFSRHENEKRPDDYLRKEYVERLQKGPVNYRLQIQIHEASPDDTATIFHAGILWDKETHPWFDLAKVSIKTPLSPDVLEKTAFNIANQPASLGLLEAKSPEDYNSIGELRVAVYTWVQHLRKLKIGSLVPAGQNAIYNVEVETGDREHAGTDATITIRITGAKGRTDYLKLDKWFHNDFEAGSKEQYTVQGFDVGDIQLIELHSDGGGYWSGDPDWFVNRVIIISSTQDRVYSFPCFRWVIKDMVLFPGEATLPFNEVPAIVSEQRQKELEQRKLTYQWDYVSDDMPGNIKAKTHDDLPRDVQFTDEKSRSYQESRKAALVNLGIGSLFTMFENWDSYDDYHILYRNWILGGTPNMADRWHEDRWFGYQFLNGANPVILTRCDALPSNFPVTNEHVNASLDRGKNLDEEIKDGHIYIVDFKVLVGAKSYGGPVLEDIGYKVPDHLKHDEADIRYCAAPLALFYVNKLGHLMPIAIQINQEPGPENPIWTPHEENEHDWMMAKFWLGVAESNFHQLNTHLLRTHLTTESFALSTWRNLASAHPIFKLLQPHIYGVLAIDTIGRKELIGSGGIVDQSLSLGGGGHVTFMEKCFKEVNLQDYHLPNALKKRGVDDPSKLPGFYYRDDGLALWEAIETFIGEIIAIFYKNDDDVKRDNEIQSWIYDVHKNGWRVNPGHQDHGVPASFESREQLKEVLTSLVFTFSCQHAAVNFSQKDHYGFTPNAPAILRHPPPKKKGEATLQSILSTLPSKSQAAKAIATVYILTKFSEDERYLGNYSATAWEDKDALDAINRFQDKLEDISKKIKQRNENLEVPYIYLLPERIPNGTAI | soluble
3 | MTWPARRVLYAIWQDPWMTVSRATYISRMLALVNWATWPDDADTSDTPAACVDGDCSRPNAPGERYPTFRWSDALVRELDAVLLSTEPYRFTEDHADALERQIGKPVLLVDGEMLSWYGSRAVAGARYLRSLAQGFLEHHHHHH | not soluble
4 | MTYAESTRSAVVYSSIVPPPRTPVGPPMLKDGVRKGSASQPLQPKNGANSLDYWSKSEDEKSGITCYYSRHNIQFPPPQRKMKPVKPNPVGRSTINGFTPSTSSPQNGLRYPPFPQNTPESVMSPPVGIYRNIPAMPRAKLTKDEKNGGKMNRDGGGENPKNVVWGGTSRKDDDTASTPLNSFSANASIEKKRSTARRKPRWARCFQTLFCCVTPPREIEKIQSSQRTNSTNNNHQNGRPSTPTNTGPPIQLITQVHRDGTVTGLPTTGQACQQNGSGDGVTPYDKIANDSVGTINEKPLLPPLLPQDSNKKCLVIDLDETLVHSSFKPVKNPDFVIPVEIDGVEHQVYVLKRPYVDEFLAKVGEHFECILFTASLAKYADPVADLLDKKRVFRGRLFREACVFHKGNYVKDLSRLGRNLNQTLIIDNSPASYAFHPENAVPVTTWFDDPSDTELLDILPSLEHLNGFSSIYDLYRPEEGPQSELLNHCSC | not soluble
5 | MTYCHQFLSNLSSLTRFRLHTGNVNGYTQLKVRRFETSAEELAACLDLQLSSNPIADDFKENSCLLLCDNDHIDNYERDEIKITMKVFLSAWDVQQIDQAVTSLKEQLKTKDIEVLILSFPELDLIDGESEEDENNRWFEKVKPLYTYMEKLVETSEIASIGVSDFSARQLKTIIDHFDVKPSINHVRLDGCCQVPPELQALANDNDVQLLVHNDPTPFPTNNIFKTFCEIDSGSQKAVCSPLFETTWLSRYSVWVRKRSIMTSKGYIVQFFRKHD | not soluble
6 | MTYLEIEGTNHLSGNVTISGAKNAALPLIVSSILAKNEVKINNVPNVADIKTLISLLENLGAKVNFQNNSALLNTNTLNQTIAKYDIVRKMRASILTLGPLLARFGHCEVSLPGGCAIGQRPIDLHLLALEKMGANIQIKQGYVVASGNLKGNEILFDKITVTGSENIIMAAALAKGKTKLLNVAKEPEVVQLCEVLKDAGLEIKGIGTDELEIYGSDGELLEFKEFSVIPDRIEAGTYLCAGAITNSKITLDKVNATHLSAVLAKLHQMGFETLITEDSITLLPAKEIKPVEIMTSEYPGFPTDMQAQFMALALKANGTSIIDERLFENRFMHVSELLRMGADIKLNGHIATIVGGKELNAADVMATDLRASSALILAALAAKGTSKVHRIYHLDRGYENLEEKFKDLGAKITRLEE | not soluble
7 | MTYSGLNLNQDKATKPQTVQIVRQGEATLYWFLLIHYRFRRERRETQSLLMTRNTLKFIPFWSYKHITYAIFLYSRLPENSGQEYLTQRKAEKATKNNLHLSRLVSPTLGVQTIQSFRLPLFVYKINF | not soluble
8 | MVAADIGAGLADALTAPLDHKDKGLQSLTLDQSVRKNEKLKLAAQGAEKTYGNGDSLNTGKLKNDKVSRFDFIRQIEVDGQLITLESGEFQVYKQSHSALTAFQTEQIQDSEHSGKMVAKRQFRIGDIAGEHTSFDKLPEGGRATYRGTAFGSDDAGGKLTYTIDFAAKQGNGKIEHLKSPELNVDLAAADIKPDGKRHAVISGSVLYNQAEKGSYSLGIFGGKAQEVAGSAEVKTVNGIRHIGLAAKQHHHHHH | soluble
9 | MVADMAGSSEKFKIVLKPVTAEAVPSGDAVKVTTGGVQIDVYPEREAGGPERGLTPLGLLAASLASCEVLMSRLVGRMLGYNGFDVRVAVTADVQVAEGLRSLSIRYVFKGVDIDTANLIVSKVKELCPVYNSLVRNGVSVEENVEVE | soluble
10 | MVAESNSAVAPTANVATSPAHEHFVRVNGGHFELQGKPYVITGVNMWYAAYLGAPNEVGDRDRLAKELDNLKAIGVNNLRVLAVSEKSEINSAVKPAVTNGFGNYDETLLQGLDYLLVELAKRDMTVVLYFNNFWQWSGGMTQYMAWIEGEPVQDPNVTNEWEAFMAKSASFYRSEKAQQEYRKTLEKIITRVNSINGKAYVDDATIMSWQLANEPRPGNSQTTAEEKQIYIDWVHAAAAYIKTLDAHHLVSSGSEGEMGSVNDMQVFIDAHATPDIDYLTYHMWIRNWSWFDKTKPAETWPSAWEKAQNYMRAHIDVAKQLNKPLVLEEFGLDRDMGSYAMDSTTEYRDNYFRGVFELMLASLEQGEPSAGYNIWAWNGYGRTTRANYWWQEGDDFMGDPPQEEQGMYGVFDTDTSTIAIMKEFNARFQPKLEHHHHHH | soluble
11 | MVAISDLRGLSLPEALGGIVEAIENVEVGEQVQFVLDSDADVEAITTHLSEYAECSAEKGDRFILLKVTKRAEFKADEEEEFRIDENTNVGRLIERYPEATEILASYGFTPLRNPVLRKTLAKTITLGRAKMLKKLSDEEFEEMLRKLRELRG | not soluble
12 | MVAIVDVGITKFGKRKENIFDLVKEVTEKLLKYDIDYVIVSNSYSGEFNQTSGLSSLITTYLNLDYVPSLRVDNTSGSGGSAILVAKSLLESKEANTVLVVGVEKMSEKKTREVTKIISSLLPFEERIASLPSLASISAIEYMRKFNAPRESIAQVAVKNHYNGSLNPFAHIQKRVTLEEVLNSPVISEPLRLYEYTPISDGAAAVVMVRNEDALSYTSKPVYIKGIGSSNYTAYVSEKEDFVTLPAVVEASRKAFKKAKVERIDFAELHDMATILEIIQSEDIGLFKKGEGWKAVMEGLTSLDGEIPINPSGGLNSKGHPIGASGVAQAVEAFSQIRNEAGNRQVKNARVGLSLSMAGYGNSATVIIYGDEP | soluble
13 | MVAQNPTSISSGGRKQPQKQDKVQKKQLKKIYVVKIKRIPFGFFEKELLGYFRQFGNVLRIRVARNRRTGNHKGWAYVGFDNKAVAEIAAESMNGYLMFEQRLGCTVMKPELIPKAMRHGPLLVMRPSYLGIAKKDTIARNNTTGKNDVINAKKRVQNLNKTLKKLQNMGINYDFSVSGTPRTPLKKVIDNEVQFISDVTPKSTTPKIVKAATPKAATPKAVTPKQATPKVSTPVTKKVVIKTPKTEKPEPKQFTPKTRAGKKAAAAATPQAKSTLSNTILKSVAASARPAAVEKKTLRSRGKKKSL | soluble
14 | MVAVIIKGNEVAEKKRAQLKEEVVKLKEQGIVPGLAVILVGEDPASRSYVKGKEKGCEQVGIYSELIEFPETITEERLLAEIDRLNGDDRINGILVQLPLPKHIEEKAIIERISPEKDVDGFHPISVGRMMTGQDTFLPCTPHGIVELVKETNLDISGKHVVVIGRSNIVGKPVGQLFLNENATVTYCHSKTQNMKELTKLADILIVAVGRPKMVTADYIKEGAVVIDVGVNRLETGKLCGDVDFDNVLDVASYITPVPKGVGPMTITMLLHNTVESAKRAGVVCK | not soluble
15 | MVDAGLVLAAGFSRRFRGLLGVHKVAAGVRGYPLLCYPVTSLALAGVDRVFVVASQFNLNVVELVLGHCPFRVSGVLISSLSTLGNGFSLVEGLREAGLRGSRCLAVSMADHVYPPSIARRLIEAGCNTLGVDSRPRYIEVGEATHVSLEPGAGVRLGKDVEGCCVDIGIHTIEAGIASIGCIDLPPRGEASVSQLITCAARKGYTFKLVDVDGGPWMEVDSPEDLERLLQGDGLEVLEAVRSEWGFLEHHHHHH | not soluble
16 | MVDLKRLRQEPEVFHRAIREKGVALDLEALLALDQEVQELKKRLQEVQTERNQVAKRVPKAPPEEKEALIARGRALGEEAKRLEEALREKEAQLEALLLQVPLPPWPGAPVGGEEANREIKRVGSPPEFSFPPLDHVALMEKNGWWEPRISQVSGSRSYALKGDLALYELALLRFAMDFMARRGFLPMTLPSYAREKAFLGTGHFPAYRDQVWAIAETDLYLTGTAEVVLNALHSGEILPYEALPLRYAGYAPAFRSEAGSFGKDVRGLMRVHQFHKVEQYVLTEASLEASDRAFQELLENAEEILRLLELPYRLVEVATGDMGPGKWRQVDVEVYLPSEGRYRETHSCSALLDWQARRANLRYRDPEGRVRYAYTLNNTALATPRILAMLLENHQLQDGRVRVPKALVPYMGKEVLEPCG | soluble
17 | MVDLKRLRQEPEVFHRAIREKGVALDLEALLAVDEQLHKQQEVIADKQMSVKEDLDKVEPAVIEAQNAVKSIKKQHLVEVRSMANPPAAVKLALESIALLLGESTTDWKQIRSIIMRENFIPTIVNFSAEEISDAIREKMKKNYMSNPSYNYEIVNRASLAAGPMVKWAIAQLNYADMLKRVEPLRNELQKLEDDAKDNQQKLEALLLQVPLPPWPGAPVGGEEANREIKRVGGPPEFSFPPLDHVALMEKNGWWEPRISQVSGSRSYALKGDLALYELALLRFAMDFMARRGFLPMTLPSYAREKAFLGTGHFPAYRDQVWAIAETDLYLTGTAEVVLNALHSGEILPYEALPLRYAGYAPAFRSEAGSFGKDVRGLMRVHQFHKVEQYVLTEASLEASDRAFQELLENAEEILRLLELPYRLVEVATGDMGPGKWRQVDIEVYLPSEGRYRETHSCSALLDWQARRANLRYRDPEGRVRYAYTLNNTALATPRILAMLLENHQLQDGRVRVPQALIPYMGKEVLEPGAHHHHHH | soluble
